The record followed here is the Immune Epitope Database (IEDB).

Experiment [1] deals with HLA-A*68:02. Kind of experiment: IEDB peptide-MHC binding, cellular MHC/competitive/fluorescence; ≥ and ≤ were set here for values at or beyond the usual limits of such assays.
The target in experiment [2] is HLA-A*02:01. Kind of experiment: IEDB peptide-MHC binding, purified MHC/competitive/radioactivity; ≥ and ≤ were set here for values at or beyond the usual limits of such assays.
Experiment [3] has as its target HLA-A*02:02. Described as above.
For experiment [4], the target named is HLA-A*02:03. Described as above.
Experiment [5] concerns the target HLA-A*02:06. The description is as above.
Setting [6] is: source organism: Vaccinia virus WR.
[7] abbreviates: source organism: Hepacivirus hominis.
The mark [8] stands for this setting: source organism: Influenza A virus.

As usually defined, the IC50 is the midpoint of a concentration-inhibition curve. As to NLLEQLIENI, the IC50 was determined as 24700 nM in experiment [1] (setting [6]); 326 nM in experiment [2] (setting [6]); 836 nM in experiment [3] (setting [6]); 1440 nM in experiment [4] (setting [6]); 396 nM in experiment [5] (setting [6]).

Regarding PTILATLNTL, the half-inhibitory concentration (IC50) in experiment [1] (setting [6]) is 9740 nM; in experiment [2] (setting [6]) it was 1340 nM; in experiment [3] (setting [6]) it was 374 nM; in experiment [4] (setting [6]) it was 130 nM; in experiment [5] (setting [6]), 771 nM.

For PTWLGAAITL, the concentration for half-maximal inhibition (IC50) in experiment [1] (setting [6]) came to 7400 nM; in experiment [2] (setting [6]), 4810 nM; in experiment [3] (setting [6]), 1360 nM; in experiment [4] (setting [6]), 1010 nM; in experiment [5] (setting [6]), 1770 nM.

Regarding PVLEKKVCAI, the IC50 turned out to be 39700 nM in experiment [1] (setting [6]); 1530 nM in experiment [2] (setting [6]); 541 nM in experiment [3] (setting [6]); 1190 nM in experiment [4] (setting [6]); 1040 nM in experiment [5] (setting [6]).

For QIGGEAIFLI, the IC50 in experiment [1] (setting [6]) is at least 70000 nM; in experiment [2] (setting [6]) it was 383 nM; in experiment [3] (setting [6]) it was 8.2 nM; in experiment [4] (setting [6]) it was 0.2 nM; in experiment [5] (setting [6]), 15 nM.

Consider QLLKILDNL, for which the IC50 came out at 21700 nM in experiment [1] (setting [6]); 441 nM in experiment [2] (setting [6]); 227 nM in experiment [3] (setting [6]); 319 nM in experiment [4] (setting [6]); 135 nM in experiment [5] (setting [6]).

For the sequence QLVKDESIQL, the half-inhibitory concentration (IC50) in experiment [1] (setting [6]) is 7940 nM; in experiment [2] (setting [6]) it was 916 nM; in experiment [3] (setting [6]) it was 157 nM; in experiment [4] (setting [6]) it was 130 nM; in experiment [5] (setting [6]) it was 1810 nM.

Turning to QVLQQNNSFI, the IC50 came to 9960 nM in experiment [1] (setting [6]); 1470 nM in experiment [2] (setting [6]); 544 nM in experiment [3] (setting [6]); 3180 nM in experiment [4] (setting [6]); 2320 nM in experiment [5] (setting [6]).

RALKAYFTA: the half-inhibitory concentration (IC50) in experiment [1] (setting [6]) came to 11400 nM; in experiment [2] (setting [6]), 158 nM; in experiment [3] (setting [6]), 2350 nM; in experiment [4] (setting [6]), 204 nM; in experiment [5] (setting [6]), 14 nM.

For RIKSVLDII, the IC50 in experiment [1] (setting [6]) came out at 14500 nM; in experiment [2] (setting [6]) it was 4700 nM; in experiment [3] (setting [6]), 111 nM; in experiment [4] (setting [6]) it was 18 nM; in experiment [5] (setting [6]) it was 2080 nM.

For the sequence RILGAGCFV, the IC50 came out at 7010 nM in experiment [1] (source organism: SARS-CoV1); 20 nM in experiment [2] (source organism: SARS-CoV1); 24 nM in experiment [3] (source organism: SARS-CoV1); 53 nM in experiment [4] (source organism: SARS-CoV1); 38 nM in experiment [5] (source organism: SARS-CoV1).

With RLFTRCAVI, the IC50 in experiment [1] (setting [6]) turned out to be 6640 nM; in experiment [2] (setting [6]) it was 209 nM; in experiment [3] (setting [6]) it was 94 nM; in experiment [4] (setting [6]), 249 nM; in experiment [5] (setting [6]) it was 2820 nM.

Turning to RLHGLEAFSL, the half-maximal inhibitory concentration (IC50) worked out at 18500 nM in experiment [1] (setting [7]); 224 nM in experiment [2] (setting [7]); 35 nM in experiment [3] (setting [7]); 602 nM in experiment [4] (setting [7]); 649 nM in experiment [5] (setting [7]).

On to RLIQNSITI, for which the half-maximal inhibitory concentration (IC50) in experiment [1] (setting [8]) was at least 70000 nM; in experiment [2] (setting [8]), 84 nM; in experiment [3] (setting [8]), 137 nM; in experiment [4] (setting [8]), 28 nM; in experiment [5] (setting [8]) it was 1330 nM.

For RLIVYPDLGV, the IC50 worked out at 6680 nM in experiment [1] (setting [7]); 43 nM in experiment [2] (setting [7]); 1.9 nM in experiment [3] (setting [7]); 15 nM in experiment [4] (setting [7]); 129 nM in experiment [5] (setting [7]).

Regarding RLLDLSSWFT, the half-inhibitory concentration (IC50) amounted to 11100 nM in experiment [1] (setting [7]); 20 nM in experiment [2] (setting [7]); 303 nM in experiment [3] (setting [7]); 316 nM in experiment [4] (setting [7]); 82 nM in experiment [5] (setting [7]).

Take RLVPGATYAL: the IC50 is 45800 nM in experiment [1] (setting [7]); 150 nM in experiment [2] (setting [7]); 12 nM in experiment [3] (setting [7]); 834 nM in experiment [4] (setting [7]); 834 nM in experiment [5] (setting [7]).

Regarding RMPTDMLKL, the IC50 is at least 70000 nM in experiment [1] (setting [6]); 1840 nM in experiment [2] (setting [6]); 950 nM in experiment [3] (setting [6]); 106 nM in experiment [4] (setting [6]); 678 nM in experiment [5] (setting [6]).

With SALMTLDDL, the IC50 in experiment [1] (setting [6]) came out at 6940 nM; in experiment [2] (setting [6]), 1100 nM; in experiment [3] (setting [6]), 411 nM; in experiment [4] (setting [6]), 707 nM; in experiment [5] (setting [6]), 100 nM.

As to SALMTLDDLA, the IC50 in experiment [1] (setting [6]) worked out at 19100 nM; in experiment [2] (setting [6]), 249 nM; in experiment [3] (setting [6]), 210 nM; in experiment [4] (setting [6]), 2320 nM; in experiment [5] (setting [6]), 193 nM.

Take SIKMIYDLNA: the IC50 in experiment [1] (setting [6]) was found to be 5810 nM; in experiment [2] (setting [6]), 1780 nM; in experiment [3] (setting [6]) it was 852 nM; in experiment [4] (setting [6]) it was 257 nM; in experiment [5] (setting [6]), 1030 nM.

With SILSLETVKM, the IC50 in experiment [1] (setting [6]) was found to be 11100 nM; in experiment [2] (setting [6]) it was 1310 nM; in experiment [3] (setting [6]), 203 nM; in experiment [4] (setting [6]), 455 nM; in experiment [5] (setting [6]), 806 nM.

On to SINITPDDGL, for which the IC50 in experiment [1] (setting [6]) turned out to be 5890 nM; in experiment [2] (setting [6]), 1020 nM; in experiment [3] (setting [6]), 413 nM; in experiment [4] (setting [6]), 1230 nM; in experiment [5] (setting [6]), 0.34 nM.
